Results from patent US20220175781A1, “CD40L COMPOSITIONS AND METHODS FOR TUNABLE REGULATION” (Obsidian Therapeutics, Inc., priority 2019, published 2022).

Tests used:
HEK293T cells [1] = experiment: Surface expression of CD40L trimerization mutants, transfected HEK293T cells (FACS); format: cell-based, human; conditions: transiently transfected HEK293T cells
Description: Mutations were engineered within CD40L payload to reduce the binding affinity of CD40L payload for the CD40L endogenously expressed by cells. Constructs OT-002078, OT-002079, OT-002080, OT-002081, OT-002082 were generated with the CD40L trimerization mutants. HEK293T cells were transiently transfected with the constructs and CD40L expression was measured by FACS.

T cells (CD4 and CD8) = experiment: Cleavage resistant CD40L expression and TMP regulation in T cells; format: cell-based; conditions: for CD40L expression (percentage of CD40L expressing T cells): day 4
Description: T cells were transduced with OT-001668 and on day 4, the percentage of CD40L expressing T cells (within the both CD4 and CD8) subpopulations was calculated.
T cells were transduced with ecDHFR regulated construct OT-001671 that include a CD40L protein that was resistant to cleavage. On day 4 cells were treated with 10 μM TMP for 24 hours. […] In an independent experiment, T cells transduced with varying volumes of virus corresponding to OT-001671 were treated with increasing doses of TMP for 24 hours. In Table 41, 0.5 μL, 2 μL, and 10 μL indicate the different volumes of virus that were used.

Jurkat cells = experiment: CD40L shedding ELISA of supernatant, Jurkat cells with or without CD40-Fc receptor; format: cell-based; parameters: CD40L levels in supernatant: unit not given here; conditions: 6 hours
Description: Sheddases e.g. ADAM10/17 present in the tumor microenvironment can cleave CD40L thereby preventing the successful activation of CD40 by CD40L. […] OT-001669 which has a deletion of amino acids 1-13 of CD40L was designed to reduce internalization and OT-001668 which has a deletion of amino acids 110-116 of CD40L was designed to remove the ADAM10/17 sites. Jurkat cells stably expressing the full length construct OT-001661, OT-001669, or OT-001668 were cultured for 6 hours with 1.25 μg/ml recombinant human (h) or mouse (m) CD40-Fc receptor or left untreated and tested using an ELISA assay (Table 15).

HEK293T cells [2] = experiment: Soluble CD40L ELISA, transiently transfected HEK293T cells; format: cell-based, human
Description: Soluble CD40L (sCD40L) constructs OT-001672, OT-001686, OT-001673, OT-001674, OT-001677, and OT-001684 were transiently transfected into HEK293T cells. Cells were treated with one of the following ligands 1 μM Shield-1, 50 μM TMP, 1 μM Bazedoxifene (BZD) or vehicle control.
The pg/mL levels of soluble CD40L were measured by ELISA (Table 14). Recombinant soluble CD40L was used as the standard in the experiments.

[3] = independent experiment with similar setup

B1: OT-002078: construct with CD40L trimerization mutant (protein)
chain: MGGSGGGSGGGSGMIETYNQTSPRSAATGLPISMKIFMYLLTVFLITQMIGSALFAVYLHRRLDKIEDERNLHEDFVFMKTIQRCNTGERSLSLLNCEEIKSQFEGFVKDIMLNKEETKKENSFEMQKGDQNPQIAAHVISEASSKTTSVLQWAEKGYYTMSNNLVTLENGKQLTVKRQGLYYIYAQVTFCSNREASSQAPFIASLCLKSPGRFERILLRAANTHSSAKPCGQQSIGLFGVFELQPGASVFVNVTDPSQVSHGTGFTSFGLLKL
- % CD40L positive (HEK293T cells [1]): 49.7%

B2: OT-002079: construct with CD40L trimerization mutant (protein)
chain: MGGSGGGSGGGSGMIETYNQTSPRSAATGLPISMKIFMYLLTVFLITQMIGSALFAVYLHRRLDKIEDERNLHEDFVFMKTIQRCNTGERSLSLLNCEEIKSQFEGFVKDIMLNKEETKKENSFEMQKGDQNPQIAAHVISEASSKTTSVLQWAEKGYYTMSNNLVTLENGKQLTVKRQGLYYIYAQVTFCSNREASSQAPFIASLCLKSPGRFERILLRAANTHSSAKPCGQQSIGLHGVFELQPGASVFVNVTDPSQVSHGTGFTSFGLLKL
- % CD40L positive (HEK293T cells [1]): 64.7%

B3: OT-001668: cleavage resistant CD40L construct, deletion of amino acids 110-116 of CD40L to remove the ADAM10/17 sites (protein)
chain: MHMIETYNQTSPRSAATGLPISMKIFMYLLTVFLITQMIGSALFAVYLHRRLDKIEDERNLHEDFVFMKTIQRCNTGERSLSLLNCEEIKSQFEGFVKDIMLNKEETKKENDQNPQIAAHVISEASSKTTSVLQWAEKGYYTMSNNLVTLENGKQLTVKRQGLYYIYAQVTFCSNREASSQAPFIASLCLKSPGRFERILLRAANTHSSAKPCGQQSIHLGGVFELQPGASVFVNVTDPSQVSHGTGFTSFGLLKL
- CD40L expression (percentage of CD40L expressing T cells) (T cells (CD4 and CD8); CD4+): 95.5%
- CD40L expression (percentage of CD40L expressing T cells) (T cells (CD4 and CD8); CD8+): 86.7%
- expression of CD40L (T cells (CD4 and CD8); T cells, day 4, CD4 and CD8 subpopulations): High expression of CD40L
- CD40L levels in supernatant (Jurkat cells; 1.25 μg/ml hCD40-Fc): 10
- CD40L levels in supernatant (Jurkat cells; 1.25 μg/ml mCD40-Fc): 10
- shedding of CD40L (Jurkat cells; untreated or with human or mouse CD40-Fc): no shedding
- CD40L levels in supernatant (Jurkat cells; Untreated): 10

B4: OT-001677: Soluble CD40L (sCD40L) construct (protein)
chain: GSSLALSLTADQMVSALLDAEPPILYSEYDPTRPFSEASMMGLLTNLADRELVHMINWAKRVPGFVDLTLHDQVHLLECAWMEILMIGLVWRSMEHPGKLLFAPNLLLDRDQGKCVEGGVEIFDMLLATSSRFRMMNLQGEEFVCLKSIILLNSGVYTFLSSTLKSLEEKDHIHRVLDKITDTLIHLMAKAGLTLQQQHQRLAQLLLILSHIRHMSNKRMEHLYSMKCKNVVPLSDLLLEMLDAHRLGSMHMQKGDQNPQIAAHVISEASSKTTSVLQWAEKGYYTMSNNLVTLENGKQLTVKRQGLYYIYAQVTFCSNREASSQAPFIASLCLKSPGRFERILLRAANTHSSAKPCGQQSIHLGGVFELQPGASVFVNVTDPSQVSHGTGFTSFGLLKL
- Stabilization Ratio (HEK293T cells [2]; [3]): 7.2
- basal expression in the absence of ligand (HEK293T cells [2]; [3]): very low basal expression

B5: OT-001684: Soluble CD40L (sCD40L) construct (protein)
chain: GSSLALSLTADQMVSALLDAEPPILYSEYDPTRPFSEASMMGLLTNLADRELVHMINWAKRVPGFVDLALHDQVHLLECAWMEILMIGLVWRSMEHPGKLLFAPNLLLDRNQGKCVEGGVEIFDMLLATSSRFRMMNLQGEEFVCLKSIILLNSGVYTFLSSTLKSLEEKDHIHRVLDKITDTLIHLMAKAGLTLQQQHQRLAQLLLILSHIRHMSSKRMEHLYSMKCKNVVPLSDLLLEMLDAHRLGSMHMQKGDQNPQIAAHVISEASSKTTSVLQWAEKGYYTMSNNLVTLENGKQLTVKRQGLYYIYAQVTFCSNREASSQAPFIASLCLKSPGRFERILLRAANTHSSAKPCGQQSIHLGGVFELQPGASVFVNVTDPSQVSHGTGFTSFGLLKL
- Stabilization Ratio (HEK293T cells [2]; soluble CD40L +Ligand versus Vehicle, HEK293T cells): 1.0
